Substrate: O=S(O)O
Test: purified protein
Type: biochemical, Zea mays
Details: 400 µM ferricyanide as electron acceptor, sulfite 2.5-400 µM, 20 mM Tris-HCl pH 8.0 (general SO assay)

B1: ZmSO (recombinant maize sulfite oxidase) (Zea mays subsp. mays) (protein)
chain: MPGLTAPSDYAEEPPRHPALKINSKEPFNAEPHRSELVASYITPVDFFYKRNHGPIPKVEDLSRYTVSISGLVNKSIQLSMADIWSLPKYNVTATLQCAGNRRTAMSNVRKVRGVGWDISALGTATWGGAKLSDVLELVGIPKLSSVTSLGGKHVEFVSVDKCKEEKGGPYTASIPLNQATNPDADVLLAYEMNGEVLNRDHGYPLRVVVPGVIGARSVKWLDSINVKEEECQGFFMQKDYKMFPPTVDWDNINWSTRRPQMDFPVQSAICTLEDVDVIKEGQARIAGYALSGGGRGIERVDVSADGGKTWVEARRYQKDNVAYVSDGPQSDKWAWVLFEATLDVPANPEIVVKAVDSAANVQPEKVEDIWNLRGILNTSWHRIKIQRSSCVERSKL
notes: 45 kDa; Mo domain, no heme domain; primers give N-terminus MPGLTA
In the case of B1, the Km is reported as 21.4 ± 0.32 µM.

From paper PMC3365070, “Overexpression of a Maize Sulfite Oxidase Gene in Tobacco Enhances Tolerance to Sulfite Stress via Sulfite Oxidation and CAT-Mediated H2O2 Scavenging” (PLoS ONE, 2012)
